Laboratory results published in article PMC9482650, “Quantitative fragmentomics allow affinity mapping of interactomes” (Nature Communications, 2022).

T1: DLG3_1, Q92796
T1 sequence (Q92796 125-227, limits assumed, looked up): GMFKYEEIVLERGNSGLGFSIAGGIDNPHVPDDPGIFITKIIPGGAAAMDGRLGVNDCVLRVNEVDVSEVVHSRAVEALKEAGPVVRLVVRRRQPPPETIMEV

T2: FRMPD1, Q5SYB0
T2 sequence (Q5SYB0 52-145, limits assumed, looked up): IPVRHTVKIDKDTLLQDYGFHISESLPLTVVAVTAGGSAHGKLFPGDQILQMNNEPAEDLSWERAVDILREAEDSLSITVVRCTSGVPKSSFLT

T3: LIN7B, Q9HAP6
T3 sequence (Q9HAP6 88-185, limits assumed, looked up): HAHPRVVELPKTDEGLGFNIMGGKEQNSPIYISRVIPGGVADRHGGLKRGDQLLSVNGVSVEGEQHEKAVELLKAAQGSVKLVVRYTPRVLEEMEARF

T4: LNX2_2, Q8N448
T4 sequence (Q8N448 334-432, limits assumed, looked up): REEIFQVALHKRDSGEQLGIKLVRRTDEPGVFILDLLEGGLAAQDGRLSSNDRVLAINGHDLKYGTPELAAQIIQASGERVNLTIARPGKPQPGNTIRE

T5: MPP2, Q14168
T5 sequence (Q14168 180-250, limits assumed, looked up): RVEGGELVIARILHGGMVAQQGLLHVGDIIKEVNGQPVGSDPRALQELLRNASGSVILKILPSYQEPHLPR

T6: PCLO, Q9Y6V0
T6 sequence (Q9Y6V0 4491-4600, limits assumed, looked up): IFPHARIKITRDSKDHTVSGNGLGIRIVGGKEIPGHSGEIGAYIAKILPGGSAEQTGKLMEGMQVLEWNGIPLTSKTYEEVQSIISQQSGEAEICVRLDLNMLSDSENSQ

T7: PDZRN3_1, Q9UPQ7
T7 sequence (Q9UPQ7 244-349, limits assumed, looked up): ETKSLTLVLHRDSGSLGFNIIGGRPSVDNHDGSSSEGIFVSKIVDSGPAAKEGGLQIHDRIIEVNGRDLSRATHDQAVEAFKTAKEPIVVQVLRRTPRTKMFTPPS

T8: RHPN1, Q8TCX5
T8 sequence (Q8TCX5 508-602, limits assumed, looked up): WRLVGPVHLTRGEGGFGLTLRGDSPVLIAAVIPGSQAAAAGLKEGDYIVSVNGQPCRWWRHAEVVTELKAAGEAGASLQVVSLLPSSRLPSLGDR

T9: SNTA1, Q13424
T9 sequence (Q13424 82-180, limits assumed, looked up): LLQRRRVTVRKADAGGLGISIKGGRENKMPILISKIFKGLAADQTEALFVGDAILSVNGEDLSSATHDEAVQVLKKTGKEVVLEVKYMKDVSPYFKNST

T10: SNTG2, Q9NY99
T10 sequence (Q9NY99 68-166, limits assumed, looked up): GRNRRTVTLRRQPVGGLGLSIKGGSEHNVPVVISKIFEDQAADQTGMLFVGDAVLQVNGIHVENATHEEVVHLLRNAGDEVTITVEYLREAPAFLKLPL

T11: TX1BP3, O14907
T11 sequence (O14907 10-122, limits assumed, looked up): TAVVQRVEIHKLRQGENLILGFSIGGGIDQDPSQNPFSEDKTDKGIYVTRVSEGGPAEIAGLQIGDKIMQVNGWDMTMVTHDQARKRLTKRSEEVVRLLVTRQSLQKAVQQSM

B1: MCM7, P33993 (peptide)
chain: NASRTRITFV
B2: DENND5A, Q6IQ26 (peptide)
chain: ETSLVKGIDI

target: T1, DLG3_1, Q92796; assay: holdup assay; parameters: key: below the threshold = too weak to quantify, mostly under pKd 3.1 to 4; conditions: plain residues with an end cap or a label only (N-terminal biotin on a linker: ado-ado)

Row | Binder | pKd
1 | B1 | 4.19
2 | B2 | below the threshold

target: DLG4_2, P78352; assay: holdup assay; parameters: key: below the threshold = too weak to quantify, mostly under pKd 3.1 to 4; conditions: plain residues with an end cap or a label only (N-terminal biotin on a linker: ado-ado)
Sequence (P78352 155-259): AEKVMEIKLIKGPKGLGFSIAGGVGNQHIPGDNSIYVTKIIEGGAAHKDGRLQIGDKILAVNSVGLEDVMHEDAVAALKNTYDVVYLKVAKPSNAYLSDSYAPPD

Row | Binder | pKd
3 | B1 | 5.12
4 | B2 | below the threshold

target: DLG4_3, P78352; assay: holdup assay; parameters: key: below the threshold = too weak to quantify, mostly under pKd 3.1 to 4; conditions: plain residues with an end cap or a label only (N-terminal biotin on a linker: ado-ado)
Sequence (P78352 306-403): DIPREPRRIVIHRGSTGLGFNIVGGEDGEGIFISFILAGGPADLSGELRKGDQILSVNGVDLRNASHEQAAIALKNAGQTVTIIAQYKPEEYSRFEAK

Row | Binder | pKd
5 | B1 | 4.33
6 | B2 | below the threshold

target: T2, FRMPD1, Q5SYB0; assay: holdup assay; parameters: key: below the threshold = too weak to quantify, mostly under pKd 3.1 to 4; conditions: plain residues with an end cap or a label only (N-terminal biotin on a linker: ado-ado)

Row | Binder | pKd
7 | B1 | below the threshold
8 | B2 | below the threshold

target: FRMPD2_1, Q68DX3; assay: holdup assay; parameters: key: below the threshold = too weak to quantify, mostly under pKd 3.1 to 4; conditions: plain residues with an end cap or a label only (N-terminal biotin on a linker: ado-ado)
Sequence (Q68DX3 770-861): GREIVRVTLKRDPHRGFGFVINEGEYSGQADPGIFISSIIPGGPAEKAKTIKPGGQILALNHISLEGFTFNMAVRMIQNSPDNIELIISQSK

Row | Binder | pKd
9 | B1 | below the threshold
10 | B2 | below the threshold

target: GRIP2_3, Q9C0E4; assay: holdup assay; parameters: key: below the threshold = too weak to quantify, mostly under pKd 3.1 to 4; conditions: plain residues with an end cap or a label only (N-terminal biotin on a linker: ado-ado)
Sequence (Q9C0E4 238-339): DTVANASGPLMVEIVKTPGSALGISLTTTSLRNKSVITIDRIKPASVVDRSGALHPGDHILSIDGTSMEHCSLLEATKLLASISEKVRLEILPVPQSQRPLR

Row | Binder | pKd
11 | B1 | below the threshold
12 | B2 | below the threshold

target: HTRA1, Q92743; assay: holdup assay; parameters: key: below the threshold = too weak to quantify, mostly under pKd 3.1 to 4; conditions: plain residues with an end cap or a label only (N-terminal biotin on a linker: ado-ado)
Sequence (Q92743 360-477): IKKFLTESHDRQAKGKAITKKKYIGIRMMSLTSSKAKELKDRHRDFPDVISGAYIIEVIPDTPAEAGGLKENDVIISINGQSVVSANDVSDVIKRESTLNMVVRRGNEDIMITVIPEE

Row | Binder | pKd
13 | B1 | 4.99
14 | B2 | 3.6

target: HTRA2, O43464; assay: holdup assay; parameters: key: below the threshold = too weak to quantify, mostly under pKd 3.1 to 4; conditions: plain residues with an end cap or a label only (N-terminal biotin on a linker: ado-ado)
Sequence (O43464 355-458): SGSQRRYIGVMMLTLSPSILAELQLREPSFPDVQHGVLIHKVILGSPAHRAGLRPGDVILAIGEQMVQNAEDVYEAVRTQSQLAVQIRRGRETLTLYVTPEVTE

Row | Binder | pKd
15 | B1 | 4.52
16 | B2 | below the threshold

target: IL16_1, Q14005; assay: holdup assay; parameters: key: below the threshold = too weak to quantify, mostly under pKd 3.1 to 4; conditions: plain residues with an end cap or a label only (N-terminal biotin on a linker: ado-ado)
Sequence (Q14005 210-306): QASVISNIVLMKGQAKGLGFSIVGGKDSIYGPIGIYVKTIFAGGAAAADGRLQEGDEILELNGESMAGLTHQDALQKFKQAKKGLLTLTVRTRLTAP

Row | Binder | pKd
17 | B1 | below the threshold
18 | B2 | below the threshold

target: IL16_3, Q14005; assay: holdup assay; parameters: key: below the threshold = too weak to quantify, mostly under pKd 3.1 to 4; conditions: plain residues with an end cap or a label only (N-terminal biotin on a linker: ado-ado)
Sequence (Q14005 1107-1207): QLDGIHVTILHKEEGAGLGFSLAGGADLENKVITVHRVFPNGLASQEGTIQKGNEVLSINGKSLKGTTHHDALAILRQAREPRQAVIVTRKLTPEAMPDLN

Row | Binder | pKd
19 | B1 | below the threshold
20 | B2 | below the threshold

target: IL16_4, Q14005; assay: holdup assay; parameters: key: below the threshold = too weak to quantify, mostly under pKd 3.1 to 4; conditions: plain residues with an end cap or a label only (N-terminal biotin on a linker: ado-ado)
Sequence (Q14005 1229-1329): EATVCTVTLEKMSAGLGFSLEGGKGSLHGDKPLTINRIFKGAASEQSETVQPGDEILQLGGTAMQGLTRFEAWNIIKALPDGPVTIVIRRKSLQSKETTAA

Row | Binder | pKd
21 | B1 | 3.67
22 | B2 | below the threshold

target: Inadl_4, Q8NI35; assay: holdup assay; parameters: key: below the threshold = too weak to quantify, mostly under pKd 3.1 to 4; conditions: plain residues with an end cap or a label only (N-terminal biotin on a linker: ado-ado)
Sequence (Q8NI35 547-651): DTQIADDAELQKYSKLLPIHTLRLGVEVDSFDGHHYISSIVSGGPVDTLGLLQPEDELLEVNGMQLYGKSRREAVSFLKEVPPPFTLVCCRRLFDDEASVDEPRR

Row | Binder | pKd
23 | B1 | below the threshold
24 | B2 | below the threshold

target: Inadl_8, Q8NI35; assay: holdup assay; parameters: key: below the threshold = too weak to quantify, mostly under pKd 3.1 to 4; conditions: plain residues with an end cap or a label only (N-terminal biotin on a linker: ado-ado)
Sequence (Q8NI35 1425-1530): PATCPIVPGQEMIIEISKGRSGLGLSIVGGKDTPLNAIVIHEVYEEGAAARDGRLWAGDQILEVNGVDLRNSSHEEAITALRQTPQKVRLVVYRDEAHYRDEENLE

Row | Binder | pKd
25 | B1 | 5.05
26 | B2 | below the threshold

target: LIMK2, P53671; assay: holdup assay; parameters: key: below the threshold = too weak to quantify, mostly under pKd 3.1 to 4; conditions: plain residues with an end cap or a label only (N-terminal biotin on a linker: ado-ado)
Sequence (P53671 143-248): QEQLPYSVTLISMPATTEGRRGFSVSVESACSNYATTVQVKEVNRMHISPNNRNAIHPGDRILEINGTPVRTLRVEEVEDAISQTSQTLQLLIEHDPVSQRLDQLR

Row | Binder | pKd
27 | B1 | below the threshold
28 | B2 | below the threshold

target: T3, LIN7B, Q9HAP6; assay: holdup assay; parameters: key: below the threshold = too weak to quantify, mostly under pKd 3.1 to 4; conditions: plain residues with an end cap or a label only (N-terminal biotin on a linker: ado-ado)

Row | Binder | pKd
29 | B1 | 3.9
30 | B2 | below the threshold

target: T4, LNX2_2, Q8N448; assay: holdup assay; parameters: key: below the threshold = too weak to quantify, mostly under pKd 3.1 to 4; conditions: plain residues with an end cap or a label only (N-terminal biotin on a linker: ado-ado)

Row | Binder | pKd
31 | B1 | 5.43
32 | B2 | 4.13

target: T5, MPP2, Q14168; assay: holdup assay; parameters: key: below the threshold = too weak to quantify, mostly under pKd 3.1 to 4; conditions: plain residues with an end cap or a label only (N-terminal biotin on a linker: ado-ado)

Row | Binder | pKd
33 | B1 | below the threshold
34 | B2 | below the threshold

target: NHERF4_1, Q86UT5-2; assay: holdup assay; parameters: key: below the threshold = too weak to quantify, mostly under pKd 3.1 to 4; conditions: plain residues with an end cap or a label only (N-terminal biotin on a linker: ado-ado)
Sequence (Q86UT5 other isoform, or with tags, fused parts or gaps): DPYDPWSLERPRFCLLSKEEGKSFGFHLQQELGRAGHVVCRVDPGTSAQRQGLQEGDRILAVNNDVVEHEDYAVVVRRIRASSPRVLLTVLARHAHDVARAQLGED

Row | Binder | pKd
35 | B1 | 4.12
36 | B2 | 3.59

target: PARD3_3, Q8TEW0; assay: holdup assay; parameters: key: below the threshold = too weak to quantify, mostly under pKd 3.1 to 4; conditions: plain residues with an end cap or a label only (N-terminal biotin on a linker: ado-ado)
Sequence (Q8TEW0 582-685): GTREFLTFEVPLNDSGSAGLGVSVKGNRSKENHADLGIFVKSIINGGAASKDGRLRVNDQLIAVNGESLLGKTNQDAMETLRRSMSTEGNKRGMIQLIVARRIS

Row | Binder | pKd
37 | B1 | below the threshold
38 | B2 | 3.83

target: T6, PCLO, Q9Y6V0; assay: holdup assay; parameters: key: below the threshold = too weak to quantify, mostly under pKd 3.1 to 4; conditions: plain residues with an end cap or a label only (N-terminal biotin on a linker: ado-ado)

Row | Binder | pKd
39 | B1 | below the threshold
40 | B2 | below the threshold

target: PDLIM1, O00151; assay: holdup assay; parameters: key: below the threshold = too weak to quantify, mostly under pKd 3.1 to 4; conditions: plain residues with an end cap or a label only (N-terminal biotin on a linker: ado-ado)
Sequence (O00151 1-87): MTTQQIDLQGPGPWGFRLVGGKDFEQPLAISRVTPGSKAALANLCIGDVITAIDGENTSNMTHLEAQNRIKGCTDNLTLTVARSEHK

Row | Binder | pKd
41 | B1 | below the threshold
42 | B2 | below the threshold

target: T7, PDZRN3_1, Q9UPQ7; assay: holdup assay; parameters: key: below the threshold = too weak to quantify, mostly under pKd 3.1 to 4; conditions: plain residues with an end cap or a label only (N-terminal biotin on a linker: ado-ado)

Row | Binder | pKd
43 | B1 | 3.89
44 | B2 | below the threshold

target: T8, RHPN1, Q8TCX5; assay: holdup assay; parameters: key: below the threshold = too weak to quantify, mostly under pKd 3.1 to 4; conditions: plain residues with an end cap or a label only (N-terminal biotin on a linker: ado-ado)

Row | Binder | pKd
45 | B1 | 4.48
46 | B2 | 3.56

target: T9, SNTA1, Q13424; assay: holdup assay; parameters: key: below the threshold = too weak to quantify, mostly under pKd 3.1 to 4; conditions: plain residues with an end cap or a label only (N-terminal biotin on a linker: ado-ado)

Row | Binder | pKd
47 | B1 | 4.97
48 | B2 | below the threshold

target: T10, SNTG2, Q9NY99; assay: holdup assay; parameters: key: below the threshold = too weak to quantify, mostly under pKd 3.1 to 4; conditions: plain residues with an end cap or a label only (N-terminal biotin on a linker: ado-ado)

Row | Binder | pKd
49 | B1 | 3.84
50 | B2 | below the threshold

target: SNX27, Q96L92; assay: holdup assay; parameters: key: below the threshold = too weak to quantify, mostly under pKd 3.1 to 4; conditions: plain residues with an end cap or a label only (N-terminal biotin on a linker: ado-ado)

Row | Binder | pKd
51 | B1 | 4.85
52 | B2 | below the threshold

target: T11, TX1BP3, O14907; assay: holdup assay; parameters: key: below the threshold = too weak to quantify, mostly under pKd 3.1 to 4; conditions: plain residues with an end cap or a label only (N-terminal biotin on a linker: ado-ado)

Row | Binder | pKd
53 | B1 | 4.88
54 | B2 | below the threshold
